B1: RalBP1-associated Eps domain-containing protein 2 (Homo sapiens), Q8NFH8 (parent)
chain: MEAAAAAAAAAAAAAAAGGGCGSGPPPLLLSEGEQQCYSELFARCAGAAGGGPGSGPPEAARVAPGTATAAAGPVADLFRASQLPAETLHQITELCGAKRVGYFGPTQFYIALKLIAAAQSGLPVRIESIKCELPLPRFMMSKNDGEIRFGNPAELHGTKVQIPYLTTEKNSFKRMDDEDKQQETQSPTMSPLASPPSSPPHYQRVPLSHGYSKLRSSAEQMHPAPYEARQPLVQPEGSSSGGPGTKPLRHQASLIRSFSVERELQDNSSYPDEPWRITEEQREYYVNQFRSLQPDPSSFISGSVAKNFFTKSKLSIPELSYIWELSDADCDGALTLPEFCAAFHLIVARKNGYPLPEGLPPTLQPEYLQAAFPKPKWDCQLFDSYSESLPANQQPRDLNRMEKTSVKDMADLPVPNQDVTSDDKQALKSTINEALPKDVSEDPATPKDSNSLKARPRSRSYSSTSIEEAMKRGEDPPTPPPRPQKTHSRASSLDLNKVFQPSVPATKSGLLPPPPALPPRPCPSQSEQVSEAELLPQLSRAPSQAAESSPAKKDVLYSQPPSKPIRRKFRPENQATENQEPSTAASGPASAATMKPHPTVQKQSSKQKKAIQTAIRKNKEANAVLARLNSELQQQLKEVHQERIALENQLEQLRPVTVL
B2: RalBP1-associated Eps domain-containing protein 2 (Homo sapiens), Q8NFH8 (parent)
chain: B1 chain
partner: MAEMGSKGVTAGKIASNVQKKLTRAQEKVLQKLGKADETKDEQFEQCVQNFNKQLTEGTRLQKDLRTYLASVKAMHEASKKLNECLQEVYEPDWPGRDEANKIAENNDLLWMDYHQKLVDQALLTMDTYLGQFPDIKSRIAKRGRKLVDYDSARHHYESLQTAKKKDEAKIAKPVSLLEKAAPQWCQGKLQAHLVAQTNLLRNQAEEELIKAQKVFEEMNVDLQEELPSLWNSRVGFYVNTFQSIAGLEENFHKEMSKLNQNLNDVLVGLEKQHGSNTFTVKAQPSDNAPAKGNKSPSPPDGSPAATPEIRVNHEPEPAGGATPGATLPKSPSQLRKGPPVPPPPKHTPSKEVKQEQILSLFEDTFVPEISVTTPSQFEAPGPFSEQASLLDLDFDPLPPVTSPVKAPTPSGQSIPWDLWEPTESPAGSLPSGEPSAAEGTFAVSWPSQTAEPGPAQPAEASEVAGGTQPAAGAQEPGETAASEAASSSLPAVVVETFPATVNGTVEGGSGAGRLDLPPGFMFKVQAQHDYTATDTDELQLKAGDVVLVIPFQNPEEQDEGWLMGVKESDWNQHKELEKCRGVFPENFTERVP

Variants of: B1
Conditions: with grb2_human GRB2, P62993
grb2_human GRB2, P62993, sequence (P62993 whole entry, looked up): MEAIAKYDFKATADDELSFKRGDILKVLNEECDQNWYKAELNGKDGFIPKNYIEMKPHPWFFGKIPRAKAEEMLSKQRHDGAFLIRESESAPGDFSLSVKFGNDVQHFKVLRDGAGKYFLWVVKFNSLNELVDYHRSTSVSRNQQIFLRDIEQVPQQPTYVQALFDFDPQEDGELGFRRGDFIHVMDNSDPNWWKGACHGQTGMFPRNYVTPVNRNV

Variant	effect of a mutation on the interaction
R483A	disrupting interaction

Variants of: B1
Conditions: with grb2_human GRB2, P62993
Remark: another data set of the same source

Variant	effect of a mutation on the interaction
P480A	disrupting interaction

Variants of: B1
Conditions: with grb2_human GRB2, P62993
Remark: another data set of the same source

Variant	effect of a mutation on the interaction
P484A	disrupting interaction

Variants of: B1
Conditions: with 1433z_human YWHAZ

Variant	effect of a mutation on the interaction
S493A	disrupting interaction

Variants of: B2
Conditions: with bin1_human BIN1, O00499

Variant	effect of a mutation on the interaction
R483A	decreasing interaction

Variants of: B2
Conditions: with bin1_human BIN1, O00499
Remark: another data set of the same source

Variant	effect of a mutation on the interaction
R483A	disrupting interaction strength

Variants of: B2
Conditions: with bin1_human BIN1, O00499
Remark: another data set of the same source

Variant	effect of a mutation on the interaction
P447A	disrupting interaction

From IntAct's records for PubMed 18647389
